Experimental findings from patent US20210388087A1 (Chugai, published 2021) are described below.

B1: CE115HA000 N53W one-arm antibody (antibody, human IgG1, kappa, L234A L235A, N297A, name in Kabat numbering)
heavy: QVQLVESGGGVVQPGRSLRLSCAASGFTFSNAWMHWVRQAPGKGLEWVAQIKAKSWNYATYYAESVKGRFTISRDDSKNSLYLQMNSLKTEDTAVYYCRYVHYGAYYGVDAWGQGTTVTVSSASTKGPSVFPLAPSSKSTSGGTAALGCLVKDYFPEPVTVSWNSGALTSGVHTFPAVLQSSGLYSLSSVVTVPSSSLGTQTYICNVNHKPSNTKVDKKVEPKSCDKTHTCPPCPAPEAAGGPSVFLFPPKPKDTLMISRTPEVTCVVVDVSHEDPEVKFNWYVDGVEVHNAKTKPREEQYASTYRVVSVLTVLHQDWLNGKEYKCKVSNKALPAPIEKTISKAKGQPREPQVYTLPPSRCELTKNQVSLSCAVKGFYPSDIAVEWESNGQPENNYKTTPPVLDSDGSFFLVSKLTVDKSRWQQGNVFSCSVMHEALHNHYTQKSLSLSPDYKDDDDK
chain: EPKSSDKTHTCPPCPAPELLGGPSVFLFPPKPKDTLMISRTPEVTCVVVDVSHEDPEVKFNWYVDGVEVHNAKTKPREEQYNSTYRVVSVLTVLHQDWLNGKEYKCKVSNKALPAPIEKTISKAKGQPREPQVCTLPPSRDELTKNQVSLWCLVKGFYPSDIAVEWESNGQPENNYKTTPPVLDSDGSFFLYSKLTVDKSRWQQGNVFSCSVMHEALHNRYTQKSLSLSP
light: DIVMTQSPLSLPVTPGEPASISCRSSQSLVHSNRNTYLHWYQQKPGQAPRLLIYKVSNRFSGVPDRFSGSGSGTDFTLKISRVEAEDVGVYYCGQGTQVPYTFGQGTKLEIKRTVAAPSVFIFPPSDEQLKSGTASVVCLLNNFYPREAKVQWKVDNALQSGNSQESVTEQDSKDSTYSLSSTLTLSKADYEKHKVYACEVTHQGLSSPVTKSFNRGEC
B2: CE115HA000 S30D one-arm antibody (antibody, human IgG1, kappa, L234A L235A, N297A, name in Kabat numbering)
heavy: B1 heavy with S30D, W56N
chain: B1 chain
light: B1 light
B3: CE115HA000 N54K one-arm antibody (antibody, human IgG1, kappa, L234A L235A, N297A, name in Kabat numbering)
heavy: B1 heavy with W56N, N57K
chain: B1 chain
light: B1 light
B4: CE115HA000 Q50Y one-arm antibody (antibody, human IgG1, kappa, L234A L235A, N297A, name in Kabat numbering)
heavy: B1 heavy with Q50Y, W56N
chain: B1 chain
light: B1 light
B5: CE115HA000 S52cG one-arm antibody (antibody, human IgG1, kappa, L234A L235A, N297A, name in Kabat numbering)
heavy: B1 heavy with S55G, W56N
chain: B1 chain
light: B1 light
B6: CE115HA000 N54S one-arm antibody (antibody, human IgG1, kappa, L234A L235A, N297A, name in Kabat numbering)
heavy: B1 heavy with W56N, N57S
chain: B1 chain
light: B1 light
B7: CE115HA000 N53Y one-arm antibody (antibody, human IgG1, kappa, L234A L235A, N297A, name in Kabat numbering)
heavy: B1 heavy with W56Y
chain: B1 chain
light: B1 light
B8: CE115HA000 S30G one-arm antibody (antibody, human IgG1, kappa, L234A L235A, N297A, name in Kabat numbering)
heavy: B1 heavy with S30G, W56N
chain: B1 chain
light: B1 light
B9: CE115HA000 Q50I one-arm antibody (antibody, human IgG1, kappa, L234A L235A, N297A, name in Kabat numbering)
heavy: B1 heavy with Q50I, W56N
chain: B1 chain
light: B1 light
B10: CE115HA000 S52cA one-arm antibody (antibody, human IgG1, kappa, L234A L235A, N297A, name in Kabat numbering)
heavy: B1 heavy with S55A, W56N
chain: B1 chain
light: B1 light
B11: CE115HA000 Q50S one-arm antibody (antibody, human IgG1, kappa, L234A L235A, N297A, name in Kabat numbering)
heavy: B1 heavy with Q50S, W56N
chain: B1 chain
light: B1 light
B12: CE115HA000 N54D one-arm antibody (antibody, human IgG1, kappa, L234A L235A, N297A, name in Kabat numbering)
heavy: B1 heavy with W56N, N57D
chain: B1 chain
light: B1 light
B13: CE115HA000 N54Q one-arm antibody (antibody, human IgG1, kappa, L234A L235A, N297A, name in Kabat numbering)
heavy: B1 heavy with W56N, N57Q
chain: B1 chain
light: B1 light
B14: CE115HA000 N54L one-arm antibody (antibody, human IgG1, kappa, L234A L235A, N297A, name in Kabat numbering)
heavy: B1 heavy with W56N, N57L
chain: B1 chain
light: B1 light
B15: CE115HA000 S52cF one-arm antibody (antibody, human IgG1, kappa, L234A L235A, N297A, name in Kabat numbering)
heavy: B1 heavy with S55F, W56N
chain: B1 chain
light: B1 light
B16: CE115HA000 S52cD one-arm antibody (antibody, human IgG1, kappa, L234A L235A, N297A, name in Kabat numbering)
heavy: B1 heavy with S55D, W56N
chain: B1 chain
light: B1 light
B17: CE115HA000 Q50A one-arm antibody (antibody, human IgG1, kappa, L234A L235A, N297A, name in Kabat numbering)
heavy: B1 heavy with Q50A, W56N
chain: B1 chain
light: B1 light
B18: CE115HA000 N82aD one-arm antibody (antibody, human IgG1, kappa, L234A L235A, N297A, name in Kabat numbering)
heavy: B1 heavy with W56N, N86D
chain: B1 chain
light: B1 light
B19: CE115HA000 N54Y one-arm antibody (antibody, human IgG1, kappa, L234A L235A, N297A, name in Kabat numbering)
heavy: B1 heavy with W56N, N57Y
chain: B1 chain
light: B1 light
B20: CE115HA000 Q50E one-arm antibody (antibody, human IgG1, kappa, L234A L235A, N297A, name in Kabat numbering)
heavy: B1 heavy with Q50E, W56N
chain: B1 chain
light: B1 light
B21: CE115HA000 Q50D one-arm antibody (antibody, human IgG1, kappa, L234A L235A, N297A, name in Kabat numbering)
heavy: B1 heavy with Q50D, W56N
chain: B1 chain
light: B1 light
B22: CE115HA000 R16E one-arm antibody (antibody, human IgG1, kappa, L234A L235A, N297A, name in Kabat numbering)
heavy: B1 heavy with R16E, W56N
chain: B1 chain
light: B1 light
B23: CE115HA000 Q50K one-arm antibody (antibody, human IgG1, kappa, L234A L235A, N297A, name in Kabat numbering)
heavy: B1 heavy with Q50K, W56N
chain: B1 chain
light: B1 light
B24: CE115HA000 R19T one-arm antibody (antibody, human IgG1, kappa, L234A L235A, N297A, name in Kabat numbering)
heavy: B1 heavy with R19T, W56N
chain: B1 chain
light: B1 light
B25: CE115HA000 N76S one-arm antibody (antibody, human IgG1, kappa, L234A L235A, N297A, name in Kabat numbering)
heavy: B1 heavy with W56N, N79S
chain: B1 chain
light: B1 light
B26: CE115HA000 R16Q one-arm antibody (antibody, human IgG1, kappa, L234A L235A, N297A, name in Kabat numbering)
heavy: B1 heavy with R16Q, W56N
chain: B1 chain
light: B1 light
B27: CE115HA000 Q105E one-arm antibody (antibody, human IgG1, kappa, L234A L235A, N297A, name in Kabat numbering)
heavy: B1 heavy with W56N, Q114E
chain: B1 chain
light: B1 light
B28: CE115HA000 N54A one-arm antibody (antibody, human IgG1, kappa, L234A L235A, N297A, name in Kabat numbering)
heavy: B1 heavy with W56N, N57A
chain: B1 chain
light: B1 light
B29: CE115HA000 Q50L one-arm antibody (antibody, human IgG1, kappa, L234A L235A, N297A, name in Kabat numbering)
heavy: B1 heavy with Q50L, W56N
chain: B1 chain
light: B1 light
B30: CE115HA000 N54F one-arm antibody (antibody, human IgG1, kappa, L234A L235A, N297A, name in Kabat numbering)
heavy: B1 heavy with W56N, N57F
chain: B1 chain
light: B1 light
B31: CE115HA000 N54G one-arm antibody (antibody, human IgG1, kappa, L234A L235A, N297A, name in Kabat numbering)
heavy: B1 heavy with W56N, N57G
chain: B1 chain
light: B1 light

Residue numbers refer to the chain shown, from its start. In names and notes the source's numbering stands.

The assay deals with T1, CD3 epsilon homodimer protein (UniProt P07766 23-126).
T1 construct: immobilized on Sensor chip CM4 by amine coupling; also called CD3 (CD3 epsilon)
T1 sequence (P07766 23-126): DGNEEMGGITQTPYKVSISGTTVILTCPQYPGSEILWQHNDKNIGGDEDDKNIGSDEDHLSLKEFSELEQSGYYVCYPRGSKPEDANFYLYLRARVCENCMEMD
Briefly: SPR (Biacore T200), CD3 epsilon homodimer on CM4 chip, one-arm antibody as analyte, 25 C.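 Further: homodimer attached to the sensor surface via amine coupling, HBS-EP+ used as running buffer during binding runs.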
Consider B1, for which the “ratio of amounts bound (altered form / CE115HA000)” value stood at 0.88. To B2 belongs 0.86; to B3, 1.2. To B4 belongs 0.25; to B5, 0.97. To B6 belongs 0.84; to B7, 0.63. For the molecule B8, the “ratio of amounts bound (altered form / CE115HA000)” value stood at 1.01. To B9 belongs 0.4. The result for B10 reads 0.96; that for B11, 0.24. To B12 belongs 0.62. For B13, the “ratio of amounts bound (altered form / CE115HA000)” value was determined as 0.84.

On to B14, for which the “ratio of amounts bound (altered form / CE115HA000)” value was 0.94. To B15 belongs 1.13; to B16, 0.6; to B17, 0.24. For the molecule B18, the “ratio of amounts bound (altered form / CE115HA000)” value is 0.73. The result for B19 reads 1.09; that for B20, 0.26; that for B21, 0.27. Take B22: the “ratio of amounts bound (altered form / CE115HA000)” value was 0.88. For the molecule B23, the “ratio of amounts bound (altered form / CE115HA000)” value is 0.33.

With B24, the “ratio of amounts bound (altered form / CE115HA000)” value was 0.8. To B25 belongs 0.92; to B26, 0.9; to B27, 0.94.

For B28, the “ratio of amounts bound (altered form / CE115HA000)” value amounted to 0.85.

B29: the “ratio of amounts bound (altered form / CE115HA000)” value was 0.23. The result for B30 reads 1.12. B31: the “ratio of amounts bound (altered form / CE115HA000)” value amounted to 0.98.
